{
  "source": "patent US20240327516A1",
  "about": "(Zymeworks, published 2024)",
  "key": {"[1]": {"molecular_target": "T1, CD3 on CD3+ Jurkat cells and primary human T cells (human, UniProt P07766 23-207)", "T1 construct": "whole, on cells; also called native CD3; CD3ε", "assay": "cell ELISA on whole CD3+ Jurkat cells (HRP anti-human IgG Fc, A 450nm)"}, "[2]": {"molecular_target": "T2, MSLN (form in the assay not stated) (UniProt Q13421 296-580)", "T2 sequence (Q13421 other isoform, or with tags, fused parts or gaps limits assumed)": "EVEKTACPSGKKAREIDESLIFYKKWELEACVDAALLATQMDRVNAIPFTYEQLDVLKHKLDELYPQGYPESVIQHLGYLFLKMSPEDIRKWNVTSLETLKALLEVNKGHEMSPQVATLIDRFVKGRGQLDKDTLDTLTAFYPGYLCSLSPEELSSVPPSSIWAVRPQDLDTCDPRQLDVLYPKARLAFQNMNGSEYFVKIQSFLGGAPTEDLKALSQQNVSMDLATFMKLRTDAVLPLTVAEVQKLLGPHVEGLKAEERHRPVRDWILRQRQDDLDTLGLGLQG", "assay": "method and antigen form not stated in Table 12"}, "[3]": {"molecular_target": "T1, CD3 on CD3+ Jurkat cells and primary …", "assay": "flow cytometry on primary human T cells, apparent affinity"}, "[4]": {"molecular_target": "T3, mesothelin (MSLN) on MSLN-expressing tumor cells (human, UniProt Q13421 296-598)", "T3 sequence (Q13421 other isoform, or with tags, fused parts or gaps limits assumed)": "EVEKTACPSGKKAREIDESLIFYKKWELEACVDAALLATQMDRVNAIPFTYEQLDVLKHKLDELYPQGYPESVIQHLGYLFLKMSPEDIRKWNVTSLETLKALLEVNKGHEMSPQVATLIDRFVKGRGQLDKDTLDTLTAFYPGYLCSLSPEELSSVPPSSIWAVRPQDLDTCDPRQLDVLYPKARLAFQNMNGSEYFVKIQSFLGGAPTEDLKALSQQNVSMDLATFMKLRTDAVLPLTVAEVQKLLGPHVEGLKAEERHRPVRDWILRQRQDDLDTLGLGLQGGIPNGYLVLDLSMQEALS"}, "[5]": {"molecular_target": "T3, mesothelin (MSLN) on MSLN-expressing …", "remark": "listed apart in the source"}, "[6]": {"molecular_target": "T3, mesothelin (MSLN) on MSLN-expressing …", "remark": "listed apart in the source"}, "[7]": {"molecular_target": "T3, mesothelin (MSLN) on MSLN-expressing …", "assay": "cell-based or functional assay"}, "[8]": {"molecular_target": "T2, MSLN (form in the assay not stated)", "assay": "method not stated; reference v31805"}, "[9]": {"molecular_target": "T1, CD3 on CD3+ Jurkat cells and primary …", "assay": "whole-cell ELISA on CD3+ Jurkat cells, apparent affinity"}, "[10]": {"molecular_target": "T2, MSLN (form in the assay not stated)", "assay": "method not stated; reference v29191"}, "[11]": {"molecular_target": "T3, mesothelin (MSLN) on MSLN-expressing …", "assay": "cell-based or functional assay", "remark": "listed apart in the source"}, "[12]": {"molecular_target": "T4, v31805, MH6T-TriTAC benchmark construct [MSLN (VHH) x Alb (VHH) x CD3 (scFv)]", "assay": "SPR, BioRad ProteOn XPR36, 25 C, CD3 epsilon/delta-Fc captured on anti-Fc chip; value as printed, implausible for ka"}, "[13]": {"molecular_target": "T4, v31805, MH6T-TriTAC benchmark construct …", "assay": "SPR, BioRad ProteOn XPR36, 25 C, CD3 epsilon/delta-Fc captured on anti-Fc chip"}},
  "data": [
    {"binder": "v21812, trivalent and bispecific antibody construct [MSLN (2 scFv) x CD3 (1 Fab)] (bispecific antibody, human IgG1, lambda, L234A L235A, also called parental construct of v32523; dual scFv trivalent variant) heavy 1: QVQLVQSGAEVKKPGASVKVSCKASGYSFTGYTMNWVRQAPGQGLEWMGLITPYNGASSYNQKFRGKATMTVDTSTSTVYMELSSLRSEDTAVYYCARGGYDGRGFDYWGQGTLVTVSSGGGGSGGGGSGGGGSDIQMTQSPSSLSASVGDRVTITCSASSSVSYMHWYQQKSGKAPKLLIYDTSKLASGVPSRFSGSGSGTDFTLTISSLQPEDFATYYCQQWSGYPLTFGQGTKLEIKAAEPKSSDKTHTCPPCPAPEAAGGPSVFLFPPKPKDTLMISRTPEVTCVVVSVSHEDPEVKFNWYVDGVEVHNAKTKPREEQYNSTYRVVSVLTVLHQDWLNGKEYKCKVSNKALPAPIEKTISKAKGQPREPQVYVLPPSRDELTKNQVSLLCLVKGFYPSDIAVEWESNGQPENNYLTWPPVLDSDGSFFLYSKLTVDKSRWQQGNVFSCSVMHEALHNHYTQKSLSLSPG heavy 2: not shown light: NFMLTQPHSVSESPGKTVTISCKRNTGNIGSNYVNWYQQHEGSSPTTIIYRNDKRPDGVSDRFSGSIDRSSKSASLTISNLKTEDEADYFCQSYSSGFIFGGGTKLTVLGQPKAAPSVTLFPPSSEELQANKATLVCLISDFYPGAVTVAWKADSSPVKAGVETTTPSKQSNNKYAASSYLSLTPEQWKSHRSYSCQVTHEGSTVEKTVAPTECS", "values": [
      {"measurement": "EC50 (read off the curve)", "setting": "[1]", "result": "~9000", "unit": "pM"},
      {"measurement": "Affinity to MSln", "setting": "[2]", "result": 0.9, "unit": "nM"},
      {"measurement": "EC50", "setting": "[3]", "result": 58800, "unit": "pM"},
      {"measurement": "Kd", "setting": "[4]", "result": "~470", "unit": "pM"},
      {"measurement": "EC50 (read off the curve)", "setting": "[5]", "result": "~500", "unit": "pM"},
      {"measurement": "EC50", "setting": "[6]", "result": 400, "unit": "pM"},
      {"measurement": "IC50 of T cell-dependent cytotoxicity on OVCAR-3 cells (pan T cells, E:T 5:1, 72 h)", "setting": "[7]", "result": 0.05, "unit": "pM"},
      {"measurement": "fold lower affinity vs v31805", "setting": "[8]", "result": "~20", "unit": "fold"},
      {"measurement": "EC50", "setting": "[9]", "result": 17700, "unit": "pM"},
      {"measurement": "fold lower binding affinity vs v29191", "setting": "[10]", "result": "~45", "unit": "fold"},
      {"measurement": "maximum killing of BxPC3 cells", "setting": "[11]", "result": 75, "unit": "%"}
    ]},
    {"binder": "Recombinant CD3epsilon/delta Fc fusion protein (Sino Biological) (Fc fusion, also called recombinant CD3 fusion protein) chain 1: DGNEEMGGITQTPYKVSISGTTVILTCPQYPGSEILWQHNDKNIGGDEDDKNIGSDEDHLSLKEFSELEQSGYYVCYPRGSKPEDANFYLYLRARVCENCMEMD chain 2: FKIPIEELEDRVFVNCNTSITWVEGTVGTLLSDITRLDLGKRILDPRGIYRCNGTDIYKDKESTVQVHYRMCQSCVELDPATVA", "values": [
      {"measurement": "kon", "setting": "[12]", "result": "5.04e+06", "unit": "M⁻¹ s⁻¹"},
      {"measurement": "Kd", "setting": "[13]", "result": 750, "unit": "pM"},
      {"measurement": "koff", "setting": "[13]", "result": 0.00379, "unit": "s⁻¹"}
    ]}
  ]
}
